Laboratory results taken from patent US20150011431A1 (Scripps Research, published 2015).

Columns and labels:
[1] = target: T1, CXCR1 (UniProt P25024 1-350, limits assumed); test: flow cytometry with 2 ug/ml heparin sulfate, IgG normalized to 10 nM; CXCR1-U2OS against parental U2OS cells
T1 construct: whole, on cells; DiscoveRx cells engineered with a luminescent reporter enzyme for beta-arrestin recruitment; also called CXCR1-U2OS; U2OS-CXCR1
T1 sequence (looked up): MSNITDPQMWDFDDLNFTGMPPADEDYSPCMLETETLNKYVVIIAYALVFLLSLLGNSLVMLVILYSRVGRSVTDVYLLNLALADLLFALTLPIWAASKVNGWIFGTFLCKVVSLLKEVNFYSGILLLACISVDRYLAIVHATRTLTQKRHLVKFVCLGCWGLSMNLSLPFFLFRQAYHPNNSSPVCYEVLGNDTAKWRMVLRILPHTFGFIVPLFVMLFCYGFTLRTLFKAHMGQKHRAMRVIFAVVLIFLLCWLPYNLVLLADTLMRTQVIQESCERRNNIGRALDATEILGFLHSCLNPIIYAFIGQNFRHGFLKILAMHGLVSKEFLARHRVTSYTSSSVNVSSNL
Procedure: (§1) Cell culture supernatants were then tested for binding to cells by flow cytometry. The adherent U2OS or CXCR1-U2OS cells were dissociated with Accutase (Innovative Cell Technologies, Inc., San Diego, Calif.), neutralized with an equal volume of media containing 10% serum, centrifuged at 1000 g, and resuspended in PBS with 2% BSA. Next, cells were dispensed into microtiter plates to achieve between 30,000 to 300,000 cells per well, centrifuged again, and resuspended in cell culture supernatant containing expressed IgG, or a dilution of IgG-containing cell culture supernatant. A fluorescent-conjugated anti-Human Fc antibody was used to detect binding of the expressed antibody to cells.
In an exemplary method, variants of V1-51 were made by overlap PCR and subcloned into pFuse vector for expression as described in Example 4. […] These V1-51 variants were paired with heavy chains encoding VH4-34+CDR3-IL8 (SEQ ID NO: 430), VH4-34+CDR3-IL8_CDR1 Cow (SEQ ID NO: 432), VH4-34+CDR3-IL8_CDR2 Cow (SEQ ID NO: 433), or VH4-34+CDR3-IL8_CDR1 Cow CDR2 Cow, (SEQ ID NO: 436). Transfections and ELISA were carried out as described above, and flow cytometry was used to evaluate CXCR1 binding specificity as previously described, with the modification that cells were resuspended in 2% BSA in PBS plus 2 ug/ml Heparin sulfate, and IgGs were normalized to 10 nM during incubation on cells.

[2] = target: T1, CXCR1; test: flow cytometry; fluorescence on CXCR1-U2OS cells over fluorescence on parental U2OS cells
Procedure: as §1, with “In an exemplary method, BLV1H12 IgG comprising a CDR3 with an IL-8 insert (e.g., the IL-8 sequence replaced a portion of the CDR3) was evaluated for binding to CXCR1 expressing cells by flow cytometry. Briefly, a cell line expressing functionally validated CXCR1 derived from U2OS cells was obtained from DiscoveRx and cultured per manufacturer's instructions (Cat#93-0226C3, DiscoveRx Corporation, Freemont, Calif.). The parental cell line U2OS was obtained from ATCC and cultured under the same conditions as the CXCR1 cells. Cell culture” for “Cell culture”
Alternatively, using the BLV1H12 light chain variable region as a guide, the human germline sequences identified with closest homology were V1-47 and V1-51.

[3] = target: T1, CXCR1; test: flow cytometry, IgG-containing supernatant on CXCR1-U2OS cells, fluorescent anti-human Fc
Procedure: as §1, with “In an exemplary method, BLV1H12 IgG comprising a CDR3 with an IL-8 insert (e.g., the IL-8 sequence replaced a portion of the CDR3) was evaluated for binding to CXCR1 expressing cells by flow cytometry. Briefly, a cell line expressing functionally validated CXCR1 derived from U2OS cells was obtained from DiscoveRx and cultured per manufacturer's instructions (Cat#93-0226C3, DiscoveRx Corporation, Freemont, Calif.). The parental cell line U2OS was obtained from ATCC and cultured under the same conditions as the CXCR1 cells. Cell culture” for “Cell culture”
(§2) Additionally, the human germline CDR3-IL8 IgGs described in Example 5 were evaluated for binding to CXCR1 expressing cells by flow cytometry as described above. IgG binding to CXCR1-U2OS cells is indicated by higher fluorescence values, but non-specific binding to U2OS parental cells is also detectable.

[4] = target: T1, CXCR1; test: flow cytometry; fluorescence on CXCR1-U2OS cells over fluorescence on parental U2OS cells; remark: listed apart in the source
Procedure: as §1, with “In an exemplary method, BLV1H12 IgG comprising a CDR3 with an IL-8 insert (e.g., the IL-8 sequence replaced a portion of the CDR3) was evaluated for binding to CXCR1 expressing cells by flow cytometry. Briefly, a cell line expressing functionally validated CXCR1 derived from U2OS cells was obtained from DiscoveRx and cultured per manufacturer's instructions (Cat#93-0226C3, DiscoveRx Corporation, Freemont, Calif.). The parental cell line U2OS was obtained from ATCC and cultured under the same conditions as the CXCR1 cells. Cell culture” for “Cell culture”
In an exemplary method, certain residues in VH4-34 CDR1 and/or CDR2 were substituted with corresponding CDR1 and/or CDR2 residues from BLV1H12. Briefly, the pFuse vector encoding heavy chain VH4-34 CDR3-IL8 was modified by overlap PCR to replace all of CDR1 with sequence from BLV1H12 (VH4-34+CDR3-IL8_CDR1 Cow, SEQ ID NO: 432) or all of CDR2 with sequence from BLV1 H12 (VH4-34+CDR3-IL8_CDR2 Cow, SEQ ID NO: 433).

[5] = target: T1, CXCR1; test: as above; remark: listed apart in the source
Procedure: as §1, with “In an exemplary method, BLV1H12 IgG comprising a CDR3 with an IL-8 insert (e.g., the IL-8 sequence replaced a portion of the CDR3) was evaluated for binding to CXCR1 expressing cells by flow cytometry. Briefly, a cell line expressing functionally validated CXCR1 derived from U2OS cells was obtained from DiscoveRx and cultured per manufacturer's instructions (Cat#93-0226C3, DiscoveRx Corporation, Freemont, Calif.). The parental cell line U2OS was obtained from ATCC and cultured under the same conditions as the CXCR1 cells. Cell culture” for “Cell culture”
as §2

B1: IgG with VH4-34+CDR3-IL8_CDR1 Cow_CDR2 Cow and light chain V1-51 (antibody)
heavy: not shown
light: QSVLTQPPSVSAAPGQKVTISCSGSSSNIGNNYVSWYQQLPGTAPKLLIYDNNKRPSGIPDRFSGSKSGTSATLGITGLQTGDEADYYCASAEDSSSNAVFGSGTTLTVLGQPKAAPSVTLFPPSSEELQANKATLVCLISDFYPGAVTVAWKADSSPVKAGVETTTPSKQSNNKYAASSYLSLTPEQWKSHRSYSCQVTHEGSTVEKTVAPTECS
notes: IgG, human IgG1 CH1-CH2-CH3; supernatant; also called Cow / Cow / V1-51; VH4-34 CDR3-IL8 CDR1-Cow & CDR2-Cow with V1-51
For B1, the CXCR1 specificity [1] was 11.1 and the “CXCR1/Parental Ratio” value [2] was 3.1.

B2: IgG with VH4-34+CDR3-IL8 (antibody)
VH: QVQLQQWGAGLLKPSETLSLTCAVYGGSFSGYYWSWIRQPPGKGLEWIGEINHSGSTNYNPSLKSRVTISVDTSKNQFSLKLSSVTAADTAVYYCTSVHQETKKYQSPRSAKELRCQCIKTYSKPFHPKFIKELRVIESGPHCANTEIIVKLSDGRELCLDPKENWVQRVVEKFLKRAENSGSGSYTYNYEWHVDVWGQGLLVTVSSAS
light: not shown
notes: IgG; VH cloned before human IgG1 CH1-CH2-CH3 in HC pFuse; cell culture supernatant; also called VH4-34 BLVCDR3IL8
In the case of B2, the “median fluorescence on CXCR1-U2OS” value [3] is reported as 648 AFU, the “FACS CXCR1/Parental Ratio” value [4] is reported as 9.3 and the “Ratio of CXCR1/Parental” value [5] is reported as 9.3.

B3: IgG with VH4-34+CDR3-IL8_CDR2 E50S and BLV1H12 light chain (antibody)
VH: QVQLQQWGAGLLKPSETLSLTCAVYGGSFSGYYWSWIRQPPGKGLEWIGSINHSGSTNYNPSLKSRVTISVDTSKNQFSLKLSSVTAADTAVYYCTSVHQETKKYQSPRSAKELRCQCIKTYSKPFHPKFIKELRVIESGPHCANTEIIVKLSDGRELCLDPKENWVQRVVEKFLKRAENSGSGSYTYNYEWHVDVWGQGLLVTVSSAS
VL: QAVLNQPSSVSGSLGQRVSITCSGSSSNVGNGYVSWYQLIPGSAPRTLIYGDTSRASGVPDRFSGSRSGNTATLTISSLQAEDEADYFCASAEDSSSNAVFGSGTTLTVLGQPKSPPSVTLFPPSTEELNGNKATLVCLISDFYPGSVTVVWKADGSTITRNVETTRASKQSNSKYAASSYLSLTSSDWKSKGSYSCEVTHEGSTVTKTVKPSECS
notes: IgG, human IgG1 CH1-CH2-CH3; also called VH4-34 + CDR3-IL8 + E50S
In the case of B3, the “FACS CXCR1/Parental Ratio” value [4] is reported as 4.

B4: IgG with VH4-34+CDR3-IL8_CDR2 Cow and BLV1H12 light chain (antibody)
VH: QVQLQQWGAGLLKPSETLSLTCAVYGGSFSGYYWSWIRQPPGKGLEWLGSIDTGGNTGYNPSLKSRVTISVDTSKNQFSLKLSSVTAADTAVYYCTSVHQETKKYQSPRSAKELRCQCIKTYSKPFHPKFIKELRVIESGPHCANTEIIVKLSDGRELCLDPKENWVQRVVEKFLKRAENSGSGSYTYNYEWHVDVWGQGLLVTVSSAS
VL: QAVLNQPSSVSGSLGQRVSITCSGSSSNVGNGYVSWYQLIPGSAPRTLIYGDTSRASGVPDRFSGSRSGNTATLTISSLQAEDEADYFCASAEDSSSNAVFGSGTTLTVLGQPKSPPSVTLFPPSTEELNGNKATLVCLISDFYPGSVTVVWKADGSTITRNVETTRASKQSNSKYAASSYLSLTSSDWKSKGSYSCEVTHEGSTVTKTVKPSECS
notes: IgG, human IgG1 CH1-CH2-CH3; also called VH4-34 + CDR3-IL8 + Cow CDR2
With B4 the “FACS CXCR1/Parental Ratio” value [4] was 8.

B5: BLV1H12 IgG (antibody)
VH: QVQLRESGPSLVKPSQTLSLTCTASGFSLSDKAVGWVRQAPGKALEWLGSIDTGGNTGYNPGLKSRLSITKDNSKSQVSLSVSSVTTEDSATYYCTSVHQETKKYQSCPDGYRERSDCSNRPACGTSDCCRVSVFGNCLTTLPVSYSYTYNYEWHVDVWGQGLLVTVSS
light: not shown
notes: also called ULcowV
With B5 the “median fluorescence on CXCR1-U2OS” value [3] was 9 AFU, the “FACS CXCR1/Parental Ratio” value [4] was 1.9 and the “Ratio of CXCR1/Parental” value [5] was 1.9.
